# In publication PMC12052392 (PLOS Pathogens, 2025):
# Target: SARS-CoV-2 S2 (T1076-Q1208) antigen, trimeric S2 fusion-core-based antigen (SARS-CoV-2 prototype (MN908947.3), UniProt P0DTC2, biotin (Biotinylation Kit))
# Experiment: BLI
# Conditions: both partners purified
binder,measurement,value
"anti-SH neutralizing antibody CV3-25 (antibody, V domains shown) VH: EVQLVESGAEVKKPGESLKISCKGSGYTFTRYWIGWVRQMPGKGLEWMGIIYPGDSDTRYSPSFQGHVTISADKSISTAYLQWNSLKASDTAMYYCARLPQYCSNGVCQRWFDPWGQGTLVTVSS VL: EIVLTQSPSSVSASVGDRVTITCRASQGISSWLAWYQQKPGKAPKLLIYAASSLQSGVPSRFSGSGSGTDFTLTISSLQPEDFATYYCQQGNSFPYTFGQGTNLEIK",binding result,binds
